Assay results taken from publication PMC9095613.

Key:
[1] = target: Tva-HA-Fc (chicken)
[2] = target: Tva-HA-Fc; test: co-IP; details: parent: est. 1.0; read off a plot

| Substance | blocking of viral entry: % GFP-positive DF-1 cells (FACS) after incubation with the gp85 protein and infection with RCASBP (A)-EGFP; Tva on DF-1 cells (Figure 6C) (% GFP-positive cells) [1] | ratio to parent [2] |
| --- | --- | --- |
| A-gp85-flag wt (soluble gp85 of ALV-A RSA) (natural protein) | 0.21 | – |
| A-gp85-flag wt (soluble gp85 of ALV-A RSA) -139S | – | 0.73 |
| A-gp85-flag wt (soluble gp85 of ALV-A RSA) -155PWVNPF | – | 0.07 |
| A-gp85-flag wt (soluble gp85 of ALV-A RSA) -201NFD | – | 0.8 |
| A-gp85-flag wt (soluble gp85 of ALV-A RSA) -266S | – | 0.43 |
| E-gp85-flag wt (soluble gp85 of ALV-E ev-1) (natural protein) | 31 | – |
